Experimental data reported in article PMC4613507.

Molecular target: GST-N–ezrin (GST-tagged N-terminal ezrin 1–309 aa) (UniProt P15311)
Experiment: pull-down

Chain of UniProt P15311 (P15311 1-309): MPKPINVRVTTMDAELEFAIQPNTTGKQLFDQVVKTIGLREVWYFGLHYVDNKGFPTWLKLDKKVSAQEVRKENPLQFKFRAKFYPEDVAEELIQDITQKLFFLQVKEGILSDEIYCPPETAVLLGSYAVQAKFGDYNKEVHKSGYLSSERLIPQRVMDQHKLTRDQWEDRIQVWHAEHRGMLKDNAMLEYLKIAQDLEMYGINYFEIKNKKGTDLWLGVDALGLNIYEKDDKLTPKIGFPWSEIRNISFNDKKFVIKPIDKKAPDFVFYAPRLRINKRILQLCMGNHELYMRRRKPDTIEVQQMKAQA

His6–thioredoxin fused NHERF2–C109 (domain or fragment)
fold higher ezrin-binding affinity than NHERF1–C127: 4 to 8 fold
